In paper PMC4137956 (Immunology, 2014) one finds Kd data, which are given here for one molecule.

The target in assay [1] is T1, C57BL/6 mouse SIRPα, N-terminal domain (d1) (mouse, biotin (on the biotinylation sequence)).
T1 sequence (P97797 whole entry, looked up): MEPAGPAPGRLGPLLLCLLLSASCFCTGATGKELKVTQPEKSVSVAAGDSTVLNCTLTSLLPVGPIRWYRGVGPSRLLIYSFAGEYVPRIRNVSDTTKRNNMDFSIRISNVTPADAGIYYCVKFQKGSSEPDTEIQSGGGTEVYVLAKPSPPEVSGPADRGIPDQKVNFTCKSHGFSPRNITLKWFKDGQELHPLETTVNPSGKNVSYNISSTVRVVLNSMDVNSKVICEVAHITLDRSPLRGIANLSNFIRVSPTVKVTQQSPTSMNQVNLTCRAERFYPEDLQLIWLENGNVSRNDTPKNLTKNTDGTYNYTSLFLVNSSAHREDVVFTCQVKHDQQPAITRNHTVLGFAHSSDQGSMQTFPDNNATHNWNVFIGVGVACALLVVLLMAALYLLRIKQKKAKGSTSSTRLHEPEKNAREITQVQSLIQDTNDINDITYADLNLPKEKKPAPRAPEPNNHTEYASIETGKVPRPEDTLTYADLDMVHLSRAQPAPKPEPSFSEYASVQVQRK
Nature of the assay: SPR; biotinylated SIRPα variants bound to streptavidin immobilised on a BIAcore CM5 chip, BIAcore 3000, 37°; dilutions of monomeric recombinant CD47 extracellular domain passed over; affinity from equilibrium binding. Conditions: one partner purified.

Assay [2] deals with T2, 129 mouse SIRPα, three extracellular IgSF domains (3d) (mouse, UniProt P97797 32-369, biotin (on the biotinylation sequence)).
T2 sequence (looked up): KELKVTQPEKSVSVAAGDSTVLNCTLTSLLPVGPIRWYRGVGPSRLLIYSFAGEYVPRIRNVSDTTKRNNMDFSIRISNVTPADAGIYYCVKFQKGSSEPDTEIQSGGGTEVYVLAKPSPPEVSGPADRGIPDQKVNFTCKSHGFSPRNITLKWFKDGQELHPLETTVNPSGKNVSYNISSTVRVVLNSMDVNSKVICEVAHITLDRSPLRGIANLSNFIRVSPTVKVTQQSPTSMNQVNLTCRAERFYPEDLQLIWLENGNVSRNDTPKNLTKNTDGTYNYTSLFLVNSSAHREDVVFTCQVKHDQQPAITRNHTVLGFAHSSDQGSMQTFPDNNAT
Described as above. To be noted: one partner purified.

B1: mouse CD47 IgSF domain, monomeric recombinant extracellular domain (domain or fragment)
chain: QLLFSNVNSIEFTSGNETVVIPCIVRNVEAQSTEEMFVKWKLNKSYIFIYDGNKNSTTTDQNFTSAKISVSDLINGIASLKMDKRDAMVGNYTCEVTELSREGKTVIELKNRTVSWFSPNE
Regarding B1, the figures for the Kd in assay [1] and in assay [2] were 5.3 µM and 2.5 µM, respectively.

As a reminder, the Kd is the constant that tells how readily two partners part at equilibrium.
